Laboratory results published in publication PMC9279507.

T1: 6XHis-tagged TgIST-R2 (G365-S420)
T1 chain: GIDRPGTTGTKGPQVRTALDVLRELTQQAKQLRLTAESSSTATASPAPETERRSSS

B1: STAT1cc (STAT1 core fragment, A656C and N658C, locked dimer), tag-free, P42224 D627A (protein)
chain: STVMLDKQKELDSKVRNVKDKVMCIEHEIKSLEDLQDEYDFKCKTLQNREHETNGVAKSDQKQEQLLLKKMYLMLDNKRKEVVHKIIELLNVTELTQNALINDELVEWKRRQQSACIGGPPNACLDQLQNWFTIVAESLQQVRQQLKKLEELEQKYTYEHDPITKNKQVLWDRTFSLFQQLIQSSFVVERQPCMPTHPQRPLVLKTGVQFTVKLRLLVKLQELNYNLKVKVLFDKDVNERNTVKGFRKFNILGTHTKVMNMEESTNGSLAAEFRHLQLKEQKNAGTRTNEGPLIVTEELHSLSFETQLCQPGLVIDLETTSLPVVVISNVSQLPSGWASILWYNMLVAEPRNLSFFLTPPCARWAQLSEVLSWQFSSVTKRGLNVDQLNMLGEKLLGPNASPDGLIPWTRFCKENINDKNFPFWLWIESILELIKKHLLPLWNDGCIMGFISKERERALLKDQQPGTFLLRFSESSREGAITFTWVERSQNGGEPAFHAVEPYTKKELSAVTFPDIIRNYKVMACECIPENPLKYLYPNIDKDHAFGKYYSRPKEAPEPMELDGPKGTGYIKTELISVSEVH
B2: STAT1cc (STAT1 core fragment, A656C and N658C, locked dimer), tag-free, P42224 E632A (protein)
chain: MSQWYELQQLDSKFLEQVHQLYDDSFPMEIRQYLAQWLEKQDWEHAANDVSFATIRFHDLLSQLDDQYSRFSLENNFLLQHNIRKSKRNLQDNFQEDPIQMSMIIYSCLKEERKILENAQRFNQAQSGNIQSTVMLDKQKELDSKVRNVKDKVMCIEHEIKSLEDLQDEYDFKCKTLQNREHETNGVAKSDQKQEQLLLKKMYLMLDNKRKEVVHKIIELLNVTELTQNALINDELVEWKRRQQSACIGGPPNACLDQLQNWFTIVAESLQQVRQQLKKLEELEQKYTYEHDPITKNKQVLWDRTFSLFQQLIQSSFVVERQPCMPTHPQRPLVLKTGVQFTVKLRLLVKLQELNYNLKVKVLFDKDVNERNTVKGFRKFNILGTHTKVMNMEESTNGSLAAEFRHLQLKEQKNAGTRTNEGPLIVTEELHSLSFETQLCQPGLVIDLETTSLPVVVISNVSQLPSGWASILWYNMLVAEPRNLSFFLTPPCARWAQLSEVLSWQFSSVTKRGLNVDQLNMLGEKLLGPNASPDGLIPWTRFCKENINDKNFPFWLWIESILELIKKHLLPLWNDGCIMGFISKERERALLKDQQPGTFLLRFSESSREGAITFTWVERSQNGGEPDFHAVAPYTKKELSAVTFPDIIRNYKVMAAENIPENPLKYLYPNIDKDHAFGKYYSRPKEAPEPMELDGPKGTGYIKTELISVSEVHPSRLQTTDNLLPMSPEEFDEVSRIVGSVEFDSMMNTV
B3: STAT1cc (STAT1 core fragment, A656C and N658C, locked dimer), tag-free, P42224 E625A (protein)
chain: MSQWYELQQLDSKFLEQVHQLYDDSFPMEIRQYLAQWLEKQDWEHAANDVSFATIRFHDLLSQLDDQYSRFSLENNFLLQHNIRKSKRNLQDNFQEDPIQMSMIIYSCLKEERKILENAQRFNQAQSGNIQSTVMLDKQKELDSKVRNVKDKVMCIEHEIKSLEDLQDEYDFKCKTLQNREHETNGVAKSDQKQEQLLLKKMYLMLDNKRKEVVHKIIELLNVTELTQNALINDELVEWKRRQQSACIGGPPNACLDQLQNWFTIVAESLQQVRQQLKKLEELEQKYTYEHDPITKNKQVLWDRTFSLFQQLIQSSFVVERQPCMPTHPQRPLVLKTGVQFTVKLRLLVKLQELNYNLKVKVLFDKDVNERNTVKGFRKFNILGTHTKVMNMEESTNGSLAAEFRHLQLKEQKNAGTRTNEGPLIVTEELHSLSFETQLCQPGLVIDLETTSLPVVVISNVSQLPSGWASILWYNMLVAEPRNLSFFLTPPCARWAQLSEVLSWQFSSVTKRGLNVDQLNMLGEKLLGPNASPDGLIPWTRFCKENINDKNFPFWLWIESILELIKKHLLPLWNDGCIMGFISKERERALLKDQQPGTFLLRFSESSREGAITFTWVERSQNGGAPDFHAVEPYTKKELSAVTFPDIIRNYKVMAAENIPENPLKYLYPNIDKDHAFGKYYSRPKEAPEPMELDGPKGTGYIKTELISVSEVHPSRLQTTDNLLPMSPEEFDEVSRIVGSVEFDSMMNTV
B4: STAT1cc (STAT1 core fragment, A656C and N658C, locked dimer), tag-free, P42224 Q594A (protein)
chain: MSQWYELQQLDSKFLEQVHQLYDDSFPMEIRQYLAQWLEKQDWEHAANDVSFATIRFHDLLSQLDDQYSRFSLENNFLLQHNIRKSKRNLQDNFQEDPIQMSMIIYSCLKEERKILENAQRFNQAQSGNIQSTVMLDKQKELDSKVRNVKDKVMCIEHEIKSLEDLQDEYDFKCKTLQNREHETNGVAKSDQKQEQLLLKKMYLMLDNKRKEVVHKIIELLNVTELTQNALINDELVEWKRRQQSACIGGPPNACLDQLQNWFTIVAESLQQVRQQLKKLEELEQKYTYEHDPITKNKQVLWDRTFSLFQQLIQSSFVVERQPCMPTHPQRPLVLKTGVQFTVKLRLLVKLQELNYNLKVKVLFDKDVNERNTVKGFRKFNILGTHTKVMNMEESTNGSLAAEFRHLQLKEQKNAGTRTNEGPLIVTEELHSLSFETQLCQPGLVIDLETTSLPVVVISNVSQLPSGWASILWYNMLVAEPRNLSFFLTPPCARWAQLSEVLSWQFSSVTKRGLNVDQLNMLGEKLLGPNASPDGLIPWTRFCKENINDKNFPFWLWIESILELIKKHLLPLWNDGCIMGFISKERERALLKDAQPGTFLLRFSESSREGAITFTWVERSQNGGEPDFHAVEPYTKKELSAVTFPDIIRNYKVMAAENIPENPLKYLYPNIDKDHAFGKYYSRPKEAPEPMELDGPKGTGYIKTELISVSEVHPSRLQTTDNLLPMSPEEFDEVSRIVGSVEFDSMMNTV
B5: STAT1cc (STAT1 core fragment, A656C and N658C, locked dimer), tag-free, P42224 S620A (protein)
chain: MSQWYELQQLDSKFLEQVHQLYDDSFPMEIRQYLAQWLEKQDWEHAANDVSFATIRFHDLLSQLDDQYSRFSLENNFLLQHNIRKSKRNLQDNFQEDPIQMSMIIYSCLKEERKILENAQRFNQAQSGNIQSTVMLDKQKELDSKVRNVKDKVMCIEHEIKSLEDLQDEYDFKCKTLQNREHETNGVAKSDQKQEQLLLKKMYLMLDNKRKEVVHKIIELLNVTELTQNALINDELVEWKRRQQSACIGGPPNACLDQLQNWFTIVAESLQQVRQQLKKLEELEQKYTYEHDPITKNKQVLWDRTFSLFQQLIQSSFVVERQPCMPTHPQRPLVLKTGVQFTVKLRLLVKLQELNYNLKVKVLFDKDVNERNTVKGFRKFNILGTHTKVMNMEESTNGSLAAEFRHLQLKEQKNAGTRTNEGPLIVTEELHSLSFETQLCQPGLVIDLETTSLPVVVISNVSQLPSGWASILWYNMLVAEPRNLSFFLTPPCARWAQLSEVLSWQFSSVTKRGLNVDQLNMLGEKLLGPNASPDGLIPWTRFCKENINDKNFPFWLWIESILELIKKHLLPLWNDGCIMGFISKERERALLKDQQPGTFLLRFSESSREGAITFTWVERAQNGGEPDFHAVEPYTKKELSAVTFPDIIRNYKVMAAENIPENPLKYLYPNIDKDHAFGKYYSRPKEAPEPMELDGPKGTGYIKTELISVSEVHPSRLQTTDNLLPMSPEEFDEVSRIVGSVEFDSMMNTV
B6: STAT1cc (STAT1 core fragment, A656C and N658C, locked dimer), tag-free, P42224 D674A (protein)
chain: MSQWYELQQLDSKFLEQVHQLYDDSFPMEIRQYLAQWLEKQDWEHAANDVSFATIRFHDLLSQLDDQYSRFSLENNFLLQHNIRKSKRNLQDNFQEDPIQMSMIIYSCLKEERKILENAQRFNQAQSGNIQSTVMLDKQKELDSKVRNVKDKVMCIEHEIKSLEDLQDEYDFKCKTLQNREHETNGVAKSDQKQEQLLLKKMYLMLDNKRKEVVHKIIELLNVTELTQNALINDELVEWKRRQQSACIGGPPNACLDQLQNWFTIVAESLQQVRQQLKKLEELEQKYTYEHDPITKNKQVLWDRTFSLFQQLIQSSFVVERQPCMPTHPQRPLVLKTGVQFTVKLRLLVKLQELNYNLKVKVLFDKDVNERNTVKGFRKFNILGTHTKVMNMEESTNGSLAAEFRHLQLKEQKNAGTRTNEGPLIVTEELHSLSFETQLCQPGLVIDLETTSLPVVVISNVSQLPSGWASILWYNMLVAEPRNLSFFLTPPCARWAQLSEVLSWQFSSVTKRGLNVDQLNMLGEKLLGPNASPDGLIPWTRFCKENINDKNFPFWLWIESILELIKKHLLPLWNDGCIMGFISKERERALLKDQQPGTFLLRFSESSREGAITFTWVERSQNGGEPDFHAVEPYTKKELSAVTFPDIIRNYKVMAAENIPENPLKYLYPNIDKAHAFGKYYSRPKEAPEPMELDGPKGTGYIKTELISVSEVHPSRLQTTDNLLPMSPEEFDEVSRIVGSVEFDSMMNTV
B7: STAT1cc (STAT1 core fragment, A656C and N658C, locked dimer), tag-free, P42224 R619A (protein)
chain: MSQWYELQQLDSKFLEQVHQLYDDSFPMEIRQYLAQWLEKQDWEHAANDVSFATIRFHDLLSQLDDQYSRFSLENNFLLQHNIRKSKRNLQDNFQEDPIQMSMIIYSCLKEERKILENAQRFNQAQSGNIQSTVMLDKQKELDSKVRNVKDKVMCIEHEIKSLEDLQDEYDFKCKTLQNREHETNGVAKSDQKQEQLLLKKMYLMLDNKRKEVVHKIIELLNVTELTQNALINDELVEWKRRQQSACIGGPPNACLDQLQNWFTIVAESLQQVRQQLKKLEELEQKYTYEHDPITKNKQVLWDRTFSLFQQLIQSSFVVERQPCMPTHPQRPLVLKTGVQFTVKLRLLVKLQELNYNLKVKVLFDKDVNERNTVKGFRKFNILGTHTKVMNMEESTNGSLAAEFRHLQLKEQKNAGTRTNEGPLIVTEELHSLSFETQLCQPGLVIDLETTSLPVVVISNVSQLPSGWASILWYNMLVAEPRNLSFFLTPPCARWAQLSEVLSWQFSSVTKRGLNVDQLNMLGEKLLGPNASPDGLIPWTRFCKENINDKNFPFWLWIESILELIKKHLLPLWNDGCIMGFISKERERALLKDQQPGTFLLRFSESSREGAITFTWVEASQNGGEPDFHAVEPYTKKELSAVTFPDIIRNYKVMAAENIPENPLKYLYPNIDKDHAFGKYYSRPKEAPEPMELDGPKGTGYIKTELISVSEVHPSRLQTTDNLLPMSPEEFDEVSRIVGSVEFDSMMNTV
B8: STAT1cc (STAT1 core fragment, A656C and N658C, locked dimer), tag-free, P42224 K652A (protein)
chain: MSQWYELQQLDSKFLEQVHQLYDDSFPMEIRQYLAQWLEKQDWEHAANDVSFATIRFHDLLSQLDDQYSRFSLENNFLLQHNIRKSKRNLQDNFQEDPIQMSMIIYSCLKEERKILENAQRFNQAQSGNIQSTVMLDKQKELDSKVRNVKDKVMCIEHEIKSLEDLQDEYDFKCKTLQNREHETNGVAKSDQKQEQLLLKKMYLMLDNKRKEVVHKIIELLNVTELTQNALINDELVEWKRRQQSACIGGPPNACLDQLQNWFTIVAESLQQVRQQLKKLEELEQKYTYEHDPITKNKQVLWDRTFSLFQQLIQSSFVVERQPCMPTHPQRPLVLKTGVQFTVKLRLLVKLQELNYNLKVKVLFDKDVNERNTVKGFRKFNILGTHTKVMNMEESTNGSLAAEFRHLQLKEQKNAGTRTNEGPLIVTEELHSLSFETQLCQPGLVIDLETTSLPVVVISNVSQLPSGWASILWYNMLVAEPRNLSFFLTPPCARWAQLSEVLSWQFSSVTKRGLNVDQLNMLGEKLLGPNASPDGLIPWTRFCKENINDKNFPFWLWIESILELIKKHLLPLWNDGCIMGFISKERERALLKDQQPGTFLLRFSESSREGAITFTWVERSQNGGEPDFHAVEPYTKKELSAVTFPDIIRNYAVMAAENIPENPLKYLYPNIDKDHAFGKYYSRPKEAPEPMELDGPKGTGYIKTELISVSEVHPSRLQTTDNLLPMSPEEFDEVSRIVGSVEFDSMMNTV

Target: T1, 6XHis-tagged TgIST-R2 (G365-S420)
Test: nickel affinity copurification, SDS-PAGE, Coomassie blue band quantification
Conditions: chain shown with the change;; parent: est. 1.0; read off a plot

In order of rising ratio to parent:
1. B1  0.04
2. B8  0.4
3. B2  0.57
4. B7  0.62
5. B3  0.75
6. B4  0.79
7. B5  0.8
8. B6  0.9
